Laboratory results from the RNAGym collection of RNA variant scans (doi:10.7554/elife.80360).

B1: CPEB3 Ribozyme (parent)
chain: GGGGGCCACAGCAGAAGCGUUCACGUCGCGGCCCCUGUCAGAUUCUGGUGAAUCUGCGAAUUCUGCUGU

Variants of: B1
Experiment: self-cleavage, relative activity (ratio to wild type); higher = more cleavage; co-transcriptional

Compared with A40U G68A, A40U G68C is lower in self-cleavage: 0.937 for the first, 0.876 for the second.

First: A40U G68U
Second: A40U G48C
The self-cleavage of the first is lower: 0.877 for the first, 0.893 for the second.

First: A40U G48U
Second: A40C U49C
The self-cleavage of the first is higher: 0.936 for the first, 0.584 for the second.

Compared with A40C U49A, A40C U49G is lower in self-cleavage: 0.679 for the first, 0.658 for the second.

Compared with G41A C45U, A40U G41A is lower in self-cleavage: 0.677 for the first, 0.537 for the second.

Compared with A40C G58U, A40C G58C is higher in self-cleavage: 0.727 for the first, 0.776 for the second.

Going from A40G G47A to A40G G47U, the self-cleavage rises from 0.987 to 1.02.

Compared with A40U G56A, A40G G56A is higher in self-cleavage: 0.818 for the first, 0.949 for the second.

Compared with A40G G56U, A40G G58U is higher in self-cleavage: 0.895 for the first, 0.963 for the second.

First: A40G G58A
Second: A40G G58C
The self-cleavage of the first is lower: 0.912 for the first, 0.973 for the second.

Going from A40C U62A to A40C U62G, the self-cleavage falls from 0.385 to 0.352.

First: A40C U62C
Second: A40G G65C
The self-cleavage of the first is lower: 0.255 for the first, 0.434 for the second.

Compared with A40G G65A, A40G G50C is higher in self-cleavage: 0.756 for the first, 0.943 for the second.

Going from A40G G50U to A40G G50A, the self-cleavage falls from 0.971 to 0.918.

First: A40U A59U
Second: A40U A59G
The self-cleavage of the first is lower: 0.459 for the first, 0.887 for the second.

Compared with A40U U69A, A40U U69C is higher in self-cleavage: 0.964 for the first, 1 for the second.

Compared with A40U U69G, A40U U67C is lower in self-cleavage: 0.987 for the first, 0.845 for the second.

Compared with A40U U67A, A40U U67G is higher in self-cleavage: 0.776 for the first, 0.886 for the second.

Going from A40U C45G to A40U C45U, the self-cleavage rises from 0.744 to 0.799.

Going from A40U C45A to G41A A42G, the self-cleavage rises from 0.629 to 0.855.

Going from G41A A42C to A40C U67G, the self-cleavage rises from 0.588 to 0.744.

First: A40C U67A
Second: A40C G65A
The self-cleavage of the first is higher: 0.518 for the first, 0.387 for the second.

First: A40C G65C
Second: A40U C63U
The self-cleavage of the first is lower: 0.332 for the first, 0.77 for the second.

Going from A40U C63G to A40U U64A, the self-cleavage rises from 0.392 to 0.435.

First: A40U U64G
Second: A40U G47C
The self-cleavage of the first is lower: 0.598 for the first, 0.88 for the second.

First: A40U C66U
Second: A40U C66A
The self-cleavage of the first is higher: 0.729 for the first, 0.397 for the second.

Going from A40U C66G to A40G C63G, the self-cleavage rises from 0.325 to 0.563.

First: A40G C63U
Second: A40G C63A
The self-cleavage of the first is higher: 0.915 for the first, 0.689 for the second.

Compared with A40U A42C, A40U A42G is lower in self-cleavage: 0.419 for the first, 0.189 for the second.

Going from A40U A42U to A40G U53C, the self-cleavage rises from 0.46 to 0.649.

First: A40G U53G
Second: A40G U53A
The self-cleavage of the first is higher: 0.813 for the first, 0.759 for the second.

First: A40C U53G
Second: A40C U53C
The self-cleavage of the first is lower: 0.15 for the first, 0.219 for the second.

Compared with A40C U53A, A40U G50C is higher in self-cleavage: 0.311 for the first, 0.643 for the second.

First: A40U G50A
Second: G41A A60U
The self-cleavage of the first is higher: 0.731 for the first, 0.278 for the second.

Compared with G41A A60C, A40G U69G is higher in self-cleavage: 0.295 for the first, 1.02 for the second.

First: A40G U69A
Second: A40G U69C
The self-cleavage of the first is higher: 1.01 for the first, 0.718 for the second.

Going from A40G G48U to A40G G48A, the self-cleavage rises from 0.969 to 1.

First: A40G G48C
Second: A40G A42G
The self-cleavage of the first is higher: 0.98 for the first, 0.822 for the second.

Going from A40G A42U to A40G A51U, the self-cleavage rises from 0.763 to 0.891.

First: A40G A51C
Second: A40G C57G
The self-cleavage of the first is higher: 0.927 for the first, 0.326 for the second.

First: A40G U44C
Second: A40G U44G
The self-cleavage of the first is lower: 0.485 for the first, 0.843 for the second.

Going from A40G U46C to A40G U46A, the self-cleavage rises from 0.942 to 0.971.

First: A40G U46G
Second: A40C U61C
The self-cleavage of the first is higher: 0.977 for the first, 0.339 for the second.

Compared with A40C U61A, A40C U61G is lower in self-cleavage: 0.304 for the first, 0.192 for the second.

Going from A40U C54U to A40U C54G, the self-cleavage falls from 0.759 to 0.457.

Going from A40C U64A to A40G U67C, the self-cleavage rises from 0.357 to 0.901.

Going from A40G U67G to A40G A60U, the self-cleavage falls from 0.965 to 0.486.

Going from A40G A60C to A40G A60G, the self-cleavage rises from 0.329 to 0.859.

Going from A40U U43C to A40U U43A, the self-cleavage falls from 0.485 to 0.306.

Compared with A40U A51G, A40U A51C is lower in self-cleavage: 0.842 for the first, 0.564 for the second.

Going from A40U A51U to A40U C57G, the self-cleavage falls from 0.61 to 0.366.

Going from G41A A59C to A40U U46G, the self-cleavage rises from 0.358 to 0.878.

First: A40U U46A
Second: A40U U46C
The self-cleavage of the first is higher: 0.919 for the first, 0.716 for the second.

First: A40G U61C
Second: A40G U61A
The self-cleavage of the first is lower: 0.48 for the first, 0.863 for the second.

First: A40G U61G
Second: A40U A52G
The self-cleavage of the first is lower: 0.823 for the first, 0.832 for the second.

First: A40C U55C
Second: A40C U55A
The self-cleavage of the first is lower: 0.515 for the first, 0.697 for the second.

Compared with A40G U43A, A40G U43C is lower in self-cleavage: 0.809 for the first, 0.764 for the second.

First: A40G U43G
Second: A40G C45U
The self-cleavage of the first is lower: 0.614 for the first, 0.933 for the second.

Going from A40G C45A to G41A A51U, the self-cleavage falls from 0.884 to 0.511.

First: A40G G68C
Second: A40G G68A
The self-cleavage of the first is lower: 0.953 for the first, 0.954 for the second.

First: A40G A59G
Second: A40G A59C
The self-cleavage of the first is higher: 0.935 for the first, 0.568 for the second.

First: G41A C54U
Second: G41A C54G
The self-cleavage of the first is higher: 0.961 for the first, 0.861 for the second.

Compared with A40U U61G, G41A C57G is higher in self-cleavage: 0.286 for the first, 0.299 for the second.

Compared with G41A C57U, G41A C57A is lower in self-cleavage: 0.368 for the first, 0.283 for the second.

Compared with A40U U53C, G41A A52G is higher in self-cleavage: 0.296 for the first, 0.716 for the second.

First: G41A A52U
Second: A40G C54U
The self-cleavage of the first is lower: 0.683 for the first, 0.952 for the second.

Compared with A40C U43C, A40C U43A is higher in self-cleavage: 0.314 for the first, 0.356 for the second.

Compared with A40C U43G, A40G G41A is higher in self-cleavage: 0.281 for the first, 0.706 for the second.

Compared with A40G G41U, A40G G41C is lower in self-cleavage: 0.722 for the first, 0.433 for the second.

Going from A40U U62A to A40U U62C, the self-cleavage falls from 0.436 to 0.351.

Going from A40U U62G to A40U U44C, the self-cleavage falls from 0.426 to 0.262.

Going from A40U U44G to A40U A60C, the self-cleavage falls from 0.623 to 0.235.

Going from A40U A60U to A40U G65U, the self-cleavage falls from 0.41 to 0.405.

First: A40U G65A
Second: A40U G65C
The self-cleavage of the first is higher: 0.352 for the first, 0.304 for the second.

Compared with A40G U64A, A40U U55G is higher in self-cleavage: 0.759 for the first, 0.839 for the second.

First: A40U U55A
Second: A40U U55C
The self-cleavage of the first is higher: 0.936 for the first, 0.828 for the second.

Compared with A40G C66U, A40G C66A is lower in self-cleavage: 0.982 for the first, 0.54 for the second.

First: A40G U49A
Second: A40G U49G
The self-cleavage of the first is lower: 0.969 for the first, 0.999 for the second.

Compared with A40G U49C, A40C U46A is lower in self-cleavage: 0.877 for the first, 0.866 for the second.

Going from A40C U46C to A40C U46G, the self-cleavage rises from 0.273 to 0.802.

Compared with A40G U62C, A40U U49A is higher in self-cleavage: 0.649 for the first, 0.922 for the second.

Going from A40U U49C to A40U U49G, the self-cleavage rises from 0.757 to 0.816.

First: A40C G68A
Second: A40C U69C
The self-cleavage of the first is lower: 0.882 for the first, 0.965 for the second.

For A40C U69A, the self-cleavage was 0.865.
